For the data set, the system named is Saccharomyces cerevisiae. Put plainly: transcriptional activation domain activity (GFP:mCherry ratio, weighted mean of sorted bins, harmonized to initial dataset scale) (arbitrary fluorescence ratio units); higher = stronger transcriptional activation. The note with it: beta-estradiol 1 µM; induction time 4 h. An outline of the steps:
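The listed activation activity is a read-weighted mean of bin median fluorescence, averaged across barcodes and linearly mapped onto the initial dataset scale. Barcoded tiles, fused to an estradiol-inducible synthetic transcription factor, were integrated at URA3 in yeast diploids bearing a GFP reporter. Cells were held 4 hours at 30 °C in SC with 1 uM beta-estradiol, sorted into 8 GFP:mCherry bins, and sequenced, and tiles with fewer than 50 reads were excluded.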
Regarding “QWSVMTYLYLAVRYFGIFLAMICSYWGGLFYIPETVSHVMFLLMQWSYSVYFC”, the “transcriptional activation domain activity” value was determined as 78000. Take “VIFSFLVLNFFYFSISFFLSSSFISYFHFHLSLFPFPFSFVFLIHYLFSFIVN”: the “transcriptional activation domain activity” value was 26300.

Turning to “RAGASPEEASAQSGGSRSKEAEESGSSPTGGEVGKSGGKNSSSSKSVEEKSKD”, the “transcriptional activation domain activity” value came to 29700. With “FNLNEILPLPASDFKLNTVTNLNEIDFTNIFTKSPHPHSGSTHPRQVFDQLDD”, the “transcriptional activation domain activity” value came out at 51600. “HCNGLLGNADLFEDPYQDELTSELHVLVTERLVNSWKDTILQQLCSCQDTTLS”: the “transcriptional activation domain activity” value stood at 83700. As for “MSDTKSARSGDKERDKRRREKESDSSSKDGRRGSHSHSKTPEEPKEKGHKRKH”, the “transcriptional activation domain activity” value is 13000. On to “AGNGWLLVGWFILHHFVVVSGILVAMLCLSFWDLWGSPGSPLLSRPWVAACFA”, for which the “transcriptional activation domain activity” value was 50500. With “AVDESSSEVKPAEPKADEGKPETASEENTAEASKPEAPKAEEANAEETAPAEG”, the “transcriptional activation domain activity” value is 51300.

With “FSMTVGFTTAFSFLFLGYPTWGTRLWSFLPFWIGFYNLFVFLSKLDPIWAILF”, the “transcriptional activation domain activity” value was found to be 48800.

Regarding “IWVHHVAYVRNCLAQLIFTWLDEYWRPLSDACILPRLRSWVLSRFRDAQLVQG”, the “transcriptional activation domain activity” value came out at 78700.

“PLPSPPSLPLPSPPSHSLLPLFLPFLPSLCSSLSILFPPLLLSHCPCFSFFLS”: the “transcriptional activation domain activity” value came out at 63500. Regarding “EKDKKEETKDEPKKNEVKPETKDDVDEKKDENGRPKLVVKRLRKETTAAAAVA”, the “transcriptional activation domain activity” value turned out to be 37600. Then “MFCLRSWIPILFFLTNASPIYLLLFISATYTLNRPCVYCSLLLGILVLALFDF”, with 28600; and “IAQLRRDLFHAVWRLILTPALAEAYCHGIVIMCGDGVLRRVFPRFLLYSADYP”, with 63900. With “MSEPPRKRAKLACVTCNARRVKCDVTDRHPCTNCAAGNVECETRESRRGKHVR”, the “transcriptional activation domain activity” value turned out to be 14300. Consider “VDLTQLSHLMLKIWLELILIVVYKHNILERTYENMVISCMKQVIDLLARDISE”, for which the “transcriptional activation domain activity” value was found to be 51900. As for “PAAGGFGATSTPAPAAGGFGGFGATAAAAKPAVGGFGGLGGGASAAPATTLTS”, the “transcriptional activation domain activity” value came out at 23300. In the case of “RPQSKERGGRREDGAGTDEGDSSTHPSCSSHVGRQEGVFQTVQCKHYWVVKWE”, the “transcriptional activation domain activity” value was determined as 49900.

On to “TSPKKKGRAAAKGKKGADKENAEAKTEVEKKASEDEFKDLEPNGDSKTNGAAA”, for which the “transcriptional activation domain activity” value is < 6570. With “TATARVRAVGENQKLEIVLGESDGTEEECQCGRRNKNANVKKYVQGVRAGIHY”, the “transcriptional activation domain activity” value amounted to 35000. As to “RYPPKHILISQSLILILLCFHLSFVWNKEFAPFNIESRTLFICFLGYLPILLL”, the “transcriptional activation domain activity” value is 36900. As for “CDSVYLHQDQCAHVLEYCMDATPGLINYIQLYFCSPIKPFIFLIMCCWLLFLF”, the figure is 51500. For the sequence “DTNLPTNPEAIQLHGDEDIKAWLVLAKNLAINPSRILVVLHRAVRGTQTPALG”, the “transcriptional activation domain activity” value was 40400. As for “GMGTAAGKSRARAAAKKTTTKGKESKGKSKSQVGTRRSVRGKRGAREVGDASS”, the figure is 27300. Then “MLLFFSFSLCRFLFLSLLLVFLMDAFSFLCFLLIQPPLPCLRSFFSLFLIFVL”, with 38900; and “LCASSLIWMTVSRHHLPPTIANLPATTLLILTFISLLLSIFLQFLFWALLFFW”, with 65300. With “MQVSNLLLLVLNLCCVVFLLINLDLHSCFFKLILFIFTSCLFNHPLPFQFIFT”, the “transcriptional activation domain activity” value turned out to be 51700. With “VYLCNVNLSIFKSVLSWVGVCTALYGCITIMPIFRHDSPYHTPLSFLAWHIVI”, the “transcriptional activation domain activity” value was found to be 63600.

On to “ETEGAEETSDAEGNESAGKQKKRARKSSHASSRSRTGAQNKKSTVEQKSTFRG”, for which the “transcriptional activation domain activity” value turned out to be 51600. For the sequence “TVLLDVALNGNPKELIVFILEHVYSLENDLTVLQQSLLVLVICKVYNETYPKQ”, the “transcriptional activation domain activity” value is 67400. On to “MFTFNASSTINITLSILCYFIFLISVLLIRLYLNNSFMLFSLFFFFYFIYVIL”, for which the “transcriptional activation domain activity” value was found to be 61200. In the case of “VVFNQIWIYFFIYTMIFICLILVAFYTVLLVLLIHPKKIPHNTRTVLNVYRAR”, the “transcriptional activation domain activity” value was found to be 66100.

As for “MALFLSIFLLFFFLLYLSQITHFHGILFCFFLLCAPCLYIPDSCNPLIQPLFP”, the “transcriptional activation domain activity” value stood at 35300. As to “YVLATCYPKWVYEVLMATRGRIWCVLILLAYPFFAVGVGVIVCVMGLLVAAWI”, the “transcriptional activation domain activity” value amounted to 35800.

For the sequence “KIHLVNIAQVVVFFIYRLLYGLIPLFEIATCAYYPLLVSLWHLDYLLFYTVMF”, the “transcriptional activation domain activity” value came out at 62800.

As for “RRGEGRRGEGRRGEGRRGEGRRGEGRRGEGRGGEGRGGRGGRGRGSSGTGTGS”, the “transcriptional activation domain activity” value came to 28000.

For “HKEASDKENTGSGQAQKNNKVKANTGARVKDEQEAKKKVGRPKKGTEAGTGAG”, the “transcriptional activation domain activity” value was determined as 39500. Turning to “AKYVTTSMEVTPVTFGTYRTVFLPNGGLFFAILTTIRDFVTRHGLHSKIAMIF”, the “transcriptional activation domain activity” value worked out at 54300. In the case of “AKAEAEIKTEAEVKAEAEAPADEEAQTAGGKKKKAKNKKKKKAAAAAAAAAEA”, the “transcriptional activation domain activity” value was found to be 36300. Regarding “NRRDASPEPHHKGKGKGKKNNRREAEADAEIEVREPHHKGKGKGKKNNAREAE”, the “transcriptional activation domain activity” value was determined as 21700. Then “GTSGTSVASRPSITPRAFGSSRSSRPSARSGSPSSRTAPSTPAPASSTRRTRP”, with 31100. On to “GESKEERRSKKDKKRKREAEGVPAEEEASEVQDKKKKKSKNASAMEVDSATPT”, for which the “transcriptional activation domain activity” value turned out to be 30900. Consider “SAASRVAEEKSGDDEAAAAPGTGATPEGVKRKTTRGGKKNRSKKEGGAAAAAA”, for which the “transcriptional activation domain activity” value is < 6570. On to “ACSCLSLITIFVGSGVVFQWFVSLIGSVLFQSWILILLLHFRFRYCWRKQGRP”, for which the “transcriptional activation domain activity” value is 49200. For the sequence “GVNAIGRRSSFQDVEAGKGGLIVPLRHLPPRGEDAGLVLQVHLNRAVSKLARM”, the “transcriptional activation domain activity” value stood at 65200. Turning to “EKKERAAEPIAEITTEAAAEPKAAAEEATPKKDKKEKKSKKEKKTEESAVTSE”, the “transcriptional activation domain activity” value was 34600. Consider “MPASSSTAAASPGNSHNVVGVHYKVGKKIGEGSFGIIYEGKQKEERTNLLNNQ”, for which the “transcriptional activation domain activity” value worked out at 35300. As for “MCCEAEWKREVVQDHKFDFINVSEFHRTDILTRLKYVWKYILILKAFAVMGLD”, the figure is 53700; as for “HGTHCSGTVAGKKYGVAKKAHIKAVKVLRSNGSGSMSDVVKGVEFAAESHAGE”, 38600; as for “MVCFKRSGLSLVFFFFFFFFFLLLVFFLFFFSLLLPIIISLVVRADLLMVHPH”, 31200. Then “HGRARPSRASASVPARKKTKSKVKKRASAAVVGSDDEDGEERPKKRRGGGGGA”, with 33100; and “APSSSAAADGLTSPKPTGTRAALRSILREEGAAGLLRGLSPRVAKVAPACGMM”, with 42700; and “MWWALCFFFFLFIFVILGFVGLLVCWFVGWLAGTFVGFSGSWFSFWVAWVVWV”, with 60500.

As to “LMGLDELHLRVLSSSSDDPQERLNADKVLKLLTKRRHWVLVVLLLGNVIVNES”, the “transcriptional activation domain activity” value is 35800. For the sequence “KEEDEAPAPRKARGKAKKAIVEEEEAPESEVEAPEPKAKKGRGRKAAVKKVVS”, the “transcriptional activation domain activity” value was < 6570.

These data come from the supplement of paper PMC12636428.
